In patent US20080098491A1, “MOUSE MODELS TO STUDY CACHEXIA” (ZOLTAN LABORATORIES LLC, priority 2006, published 2008):

Key:
[1] = system: B16 mouse melanoma; details: cited from earlier work
[2] = system: human HT 168 melanoma; details: total weight includes tumor weight; cited from earlier work
[3] = system: MXT mouse mammary tumor; experiment: Cisplatin-treated MXT mouse mammary tumor model, PALP and TF (Example 9, Experiment 1); type: in vivo; details: co-treated with cisplatin 3-mg/kg i.p.
Source text: The B16 mouse melanoma and MXT mouse mammary tumors were developed in first generation hybrid BDF1 (C57 B1 female×DBA/2 male) adult female mice kept at specified pathogen free (SPF) hygienic level. These models were chosen for these experiments because these mice have the complete immune system, and both tumors grow very rapidly. To develop the tumors, B16 and MXT tumor tissue fragments of about 0.1-cm^3 were surgically implanted subcutaneously into the intrascapular region to develop the tumors. Each tumor fragment contained about 1-1.5×10^6 cells. The animals were kept in macrolon cages on ventilated rack at 22-24° C. (50-60% humidity) with lighting regimen of 12/12 h light/dark. The animals had free access to tap water and were fed with sterilized standard diet (Charles River VRF1, Germany) ad libitum. The animals were taken care of according to the “Guiding Principle for the care and use of Animals” based upon the Helsinki declaration and they were approved by the local ethical committee.
In case of both tumor models the tumor size was usually in the range of 0.2 to 0.5-g when treatments started 7-11 days after tumor implantation; the mice were selected so that in the same treatment group the difference in tumor size was no greater than 0.1 gram. In some experiments, the test proteins were suspended in physiological saline and injected in 50-μl volume subcutaneously in the vicinity of tumor (within 1-cm of tumor margin). In other experiments, the test proteins were dispersed in Vaselinum cholesteratum and used topically; 150-mg cream was applied on the tumor and the vicinity of tumor area (with about 0.5-cm of the tumor margin). The tumor volume was determined by using calipers; this technique is well known to one having ordinary skill in the art. Tumor volume was calculated according to the generally accepted formula: V=a^2×b×7r/6, where “a” and “b” mean the shortest and longest diameter, respectively, of the measured tumor.
Experiment 1. The mouse MXT mammary tumor was developed as described in Example 3. In the first group, animals remained untreated during the whole observation period. In the second group, starting on the 7th day after tumor implantation, mice were intraperitoneally (i.p.) administered 3-mg per 1-kg total weight of cisplatin 7-times every second day. In the third group, starting on the 7th day after tumor implantation, mice were simultaneously administered 3-mg per 1-kg of cisplatin i.p. and 16-mg per 1-kg of purified PALP s.c. In the fourth group, starting on the 7th day after tumor implantation, mice were simultaneously administered 3-mg per 1-kg of cisplatin i.p. and 60-mg per 1-kg of commercial PALP s.c. In the fifth group, starting on the 7th day after tumor implantation, mice were simultaneously administered 3-mg per 1-kg of cisplatin i.p. and 14-mg per 1-kg of commercial TF (T 3309 in the Sigma catalog) s.c. Each treatment was performed 7-times on every second day. Each group included 7 animals. The mean values for total weight, tumor weight and body weight (the difference between total and tumor weight) are shown in TABLE 6.

[4] = system: mouse MXT tumor; details: cisplatin treated; cited from earlier work
[5] = system: B16 mouse melanoma; experiment: B16 mouse melanoma model, s.c. highly purified PALP (Example 4, Experiment 1); type: in vivo; details: highly purified PALP 14-mg/kg s.c.
Source text: The B16 mouse melanoma and MXT mouse mammary tumors were developed in first generation hybrid BDF1 (C57 B1 female×DBA/2 male) adult female mice kept at specified pathogen free (SPF) hygienic level. These models were chosen for these experiments because these mice have the complete immune system, and both tumors grow very rapidly. To develop the tumors, B16 and MXT tumor tissue fragments of about 0.1-cm^3 were surgically implanted subcutaneously into the intrascapular region to develop the tumors. Each tumor fragment contained about 1-1.5×10^6 cells. The animals were kept in macrolon cages on ventilated rack at 22-24° C. (50-60% humidity) with lighting regimen of 12/12 h light/dark. The animals had free access to tap water and were fed with sterilized standard diet (Charles River VRF1, Germany) ad libitum. […]
In case of both tumor models the tumor size was usually in the range of 0.2 to 0.5-g when treatments started 7-11 days after tumor implantation; the mice were selected so that in the same treatment group the difference in tumor size was no greater than 0.1 gram. […] The tumor volume was determined by using calipers; this technique is well known to one having ordinary skill in the art. Tumor volume was calculated according to the generally accepted formula: V=a^2×b×7r/6, where “a” and “b” mean the shortest and longest diameter, respectively, of the measured tumor. […]

B1: highly purified PALP: human placental alkaline phosphatase purified to homogeneity from commercial PALP; printed as 'PALP' in Tables 1, 7, 8 (protein, UniProt P05187 23-506, looked up)
Alkaline phosphatase, …: IIPVEEENPDFWNREAAEALGAAKKLQPAQTAAKNLIIFLGDGMGVSTVTAARILKGQKKDKLGPEIPLAMDRFPYVALSKTYNVDKHVPDSGATATAYLCGVKGNFQTIGLSAAARFNQCNTTRGNEVISVMNRAKKAGKSVGVVTTTRVQHASPAGTYAHTVNRNWYSDADVPASARQEGCQDIATQLISNMDIDVILGGGRKYMFRMGTPDPEYPDDYSQGGTRLDGKNLVQEWLAKRQGARYVWNRTELMQASLDPSVTHLMGLFEPGDMKYEIHRDSTLDPSLMEMTEAALRLLSRNPRGFFLFVEGGRIDHGHHESRAYRALTETIMFDDAIERAGQLTSEEDTLSLVTADHSHVFSFGGYPLRGSSIFGLAPGKARDRKAYTVLLYGNGPGYVLKDGARPDVTESESGSPEYRQQSAVPLDEETHAGEDVAVFARGPQAHLVHGVQEQTFIAHVMAFAACLEPYTACDLAPPAGTTD
Effect on tumor growth ([1]; administered subcutaneously or topically): reduced tumor growth
Effect on the action of CCDTHT on tumor growth ([1]; mouse, in vivo): enhance the effect of CCDTHT
Effect on tumor induced loss of total weight [2]: reduces tumor induced loss of total weight
Effect on body weight loss induced by the tumor and cisplatin [3]: not only prevented the loss but significantly enhanced body weight
Effect on total weight loss [4]: reduce total weight loss
Effect on loss of body weight [5]: reversed loss of body weight
Effect on tumor size [5]: no major effects on the tumor size
